Measurements: patent publication US11319368B2, “Treatment of hepatotoxicity with IL-11 antibody” (Singapore Health Services PTE LTD., priority 2019, dated 2022)

Experiments:
ulcerative mucositis = settings: 50-100 μg/animal/day, SC; cited from earlier work
[1] = system: primary human hepatocytes; assay: IL-11 treatment of primary human hepatocytes: ALT in supernatant, actin stress fibres; format: cell-based; settings: IL-11 0.019-10 ng/ml, 24 h
Experimental: IL-11 mediated hepatocyte cell death was measured by determining the levels of alanine transaminase (ALT) in hepatocyte supernatant after treatment with a range of IL-11 doses (0.019-10 ng/ml). ALT levels were measured using ALT Activity Assay Kit (ab105134, Abcam) according to the manufacturer's protocol. Concurrent number of stress fibres 24 h after IL-11 stimulation was detected by rhodamine-phalloidin staining.

AILI = assay: rhIL11 or rmIL11 injection in APAP OD mice; format: in vivo, mouse
Experimental: FIGS. 10A to 10L. […] (A, B, K, L) 24 h. […] FC: fold change

infection colitis = settings: 5 μg/kg, IP; cited from earlier work
hIL11Rα = target: T1, hIL11Rα (Homo sapiens, UniProt Q14626); settings: rhIL11:hIL11Rα, reported previously, reconfirmed; cited from earlier work
T1 construct: purchased SinoBiological 10252-H08H
T1 sequence (Q14626 23-422): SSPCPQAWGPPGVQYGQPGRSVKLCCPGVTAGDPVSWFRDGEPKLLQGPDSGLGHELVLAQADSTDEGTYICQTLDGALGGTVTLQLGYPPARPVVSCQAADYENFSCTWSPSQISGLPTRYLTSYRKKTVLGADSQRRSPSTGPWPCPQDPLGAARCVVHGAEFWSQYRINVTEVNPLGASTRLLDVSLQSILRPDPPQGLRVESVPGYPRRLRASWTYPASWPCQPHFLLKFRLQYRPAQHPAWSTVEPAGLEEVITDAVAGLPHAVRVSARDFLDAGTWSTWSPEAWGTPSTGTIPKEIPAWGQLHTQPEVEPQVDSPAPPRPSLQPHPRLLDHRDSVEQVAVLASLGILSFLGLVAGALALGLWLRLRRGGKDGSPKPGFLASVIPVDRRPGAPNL

LPS-induced lung injury = settings: 200 mg/kg, IP; cited from earlier work
nephrotoxic nephritis = settings: 800-1360 μg/kg, IP 2 hours prior, then once daily for 6 days; cited from earlier work
heart = settings: 20 μg/kg, IV at the start of reperfusion; cited from earlier work
liver = settings: single subcutaneous injection 500 μg kg^-1
Experimental: (A) Effect of recombinant human IL11 (rhIL11, 10 ng ml^−1) or recombinant mouse IL11 (rmIL11, 10 ng ml^−1) on ERK, JNK and CASP3 activation status in mouse hepatocytes. (B) ALT levels in mouse hepatocyte supernatant following stimulation by rmIL11 (10 ng ml^−1) or by increasing doses of rhIL11 (1, 5, 10, 15 and 20 ng ml^−1). (C) Schematic of mice receiving a single subcutaneous injection of either saline, rhIL11, or rmIl11 (500 μg kg^−1). (D) Western blot analysis of hepatic p-ERK, p-JNK, and Cl. […] Dose-dependent inhibition effect of rhIL11 on rmIL11-induced (K) ALT secretion and (L) CASP3 activation by mouse hepatocytes. (A, B, K, L) 24 h. (B, K) Data are shown as mean±SD; (E, G) Data are shown as box-and-whisker with median (middle line), 25th-75th percentiles (box), and minimum-maximum values (whiskers). (B, K) Two-tailed, Tukey-corrected Student's t-test; (E) two-tailed Student's t-test; (G) two-tailed Dunnett's test.
The levels of alanine transaminase (ALT) or aspartate aminotransferase (AST) in mouse serum and hepatocyte supernatant were measured using ALT Activity (ab105134, Abcam) or AST (ab105135, Abcam) Assay Kits. […] All colorimetric assays were performed according to the manufacturer's protocol.
Western blots were carried out from hepatocyte and liver tissue lysates. […] Protein concentrations were determined by Bradford assay (Bio-Rad). […]

[2] = subcutaneous injection, APAP OD

B1: rhIL11: Recombinant human IL11 (UniProtKB:P20809, Genscript) (protein)
chain: PGPPPGPPRVSPDPRAELDSTVLLTRSLLADTRQLAAQLRDKFPADGDHNLDSLPTLAMSAGALGALQLPGVLTRLRADLLSYLRHVQWLRRAGGSSLKTLEPELGTLQARLDRLLRRLQLLMSRLALPQPPPDPPAPPLAPPSSAWGGIRAAHAILGGLHLTLDWAVRGLLLLKTRL
5-fluorouracil-induced ulcerative mucositis (ulcerative mucositis): Administration of rhIL11 (50-100 μg/animal/day, SC) protects
actin stress fibres in hepatocytes [1]: progressively stimulated an increase in actin stress fibres
alanine aminotransferase (ALT) in hepatocyte supernatant (hepatocyte cell death) [1]: progressive increase in alanine aminotransferase (ALT)
hepatic ERK and JNK activation (AILI; 24 h following APAP administration): reduction in hepatic ERK and JNK activation
hepatic GSH levels after APAP (AILI; APAP injury): restored APAP-induced GSH depletion
reduction of serum ALT (severity of AILI) (AILI; [2]): 52%
reduction of serum AST (severity of AILI) (AILI; [2]): 39%
infection colitis (infection colitis): IP) ameliorates infection colitis and is cytoprotective in TLR2-
Kd (hIL11Rα): 50 nM
LPS-induced lung injury and lethality (LPS-induced lung injury): inflammatory activity that protects against LPS-induced lung
ECM deposition (nephrotoxic nephritis): nephrotoxic nephritis and then once daily for 6 days suppresses
adverse cardiac remodeling and apoptosis (heart): prevents adverse cardiac remodeling and apoptosis after
hepatic ERK and JNK phosphorylation (liver): no effect on ERK or JNK phosphorylation
